Biological target: T1, human Prostate Specific Membrane Antigen (PSMA) (human, UniProt Q04609 1-750)
T1 construct: whole, on cells; also called Glutamate Carboxypeptidase II; FOLH1
Assay: flow cytometry on LNCaP cells
Method: Briefly, 50,000 target cells were stained with a dilution series of purified UniAbs™ for 30 minutes at 4° C. Following incubation, the cells were washed twice with flow cytometry buffer (1×PBS, 1% BSA, 0.1% NaN₃) and stained with goat F(ab′)₂ anti-human IgG conjugated to R-phycoerythrin (PE) (Southern Biotech, cat. #2042-09) to detect cell-bound antibodies. After a 20-minute incubation at 4° C., the cells were washed twice with flow cytometry buffer and the mean fluorescence intensity (MFI) was measured by flow cytometry. The MFI of cells stained with secondary antibody alone were used for determination of background signal and binding of each antibody was converted to fold over background. […] In some experiments EC50 values were calculated using GraphPad Prism 7.
Column 1 indicates the clone ID of the HCAb. Column 2 indicates binding to LNCaP cells measured as fold over the background MFI signal.

T1 sequence (Q04609 whole entry): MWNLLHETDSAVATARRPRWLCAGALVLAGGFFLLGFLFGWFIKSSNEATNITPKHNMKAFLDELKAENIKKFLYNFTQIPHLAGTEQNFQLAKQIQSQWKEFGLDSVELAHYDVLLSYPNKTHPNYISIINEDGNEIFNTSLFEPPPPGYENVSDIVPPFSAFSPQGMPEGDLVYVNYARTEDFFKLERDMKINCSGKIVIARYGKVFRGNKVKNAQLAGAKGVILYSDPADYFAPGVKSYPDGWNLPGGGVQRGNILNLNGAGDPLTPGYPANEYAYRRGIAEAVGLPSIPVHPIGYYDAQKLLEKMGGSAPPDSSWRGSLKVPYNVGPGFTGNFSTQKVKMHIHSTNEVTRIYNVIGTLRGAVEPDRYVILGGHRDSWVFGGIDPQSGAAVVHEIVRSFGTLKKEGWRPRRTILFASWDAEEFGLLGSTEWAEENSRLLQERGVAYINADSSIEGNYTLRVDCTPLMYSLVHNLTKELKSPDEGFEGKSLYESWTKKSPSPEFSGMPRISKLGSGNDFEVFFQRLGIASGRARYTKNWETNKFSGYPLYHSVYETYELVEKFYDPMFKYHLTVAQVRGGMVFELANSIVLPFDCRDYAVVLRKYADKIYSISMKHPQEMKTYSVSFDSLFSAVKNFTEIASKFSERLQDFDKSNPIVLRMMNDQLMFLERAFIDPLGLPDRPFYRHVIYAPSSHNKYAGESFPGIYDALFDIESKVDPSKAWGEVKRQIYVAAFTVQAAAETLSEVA

| Binder | fold over background MFI [fold over background] |
| --- | --- |
| anti-PSMA heavy-chain antibody (HCAb) clone ID 345480 (antibody, V domains shown, Heavy chain-only antibody (UniAb)) VH: QVQLVESGGGVVQPGRSLRLSCAASGFSFSSYGMHWVRQAPGKGLEWVAVIWYDGSNRYYADSVKGRFTISRDNSKNTLYLQMNSLRAEDTAVYYCAREPRIGYYYESSGYYSLDYRGQGTLVTVSS | 47 |
| anti-PSMA heavy-chain antibody (HCAb) clone ID 325836 (antibody, V domains shown, Heavy chain-only antibody (UniAb)) VH: QVQLVESGGGVVQPGRSLRLSCAASGFSFRSYGMHWVRQAPGKGLEWVAVIWYDGSNKYYADSVKGRFTISRDYSKNTLYLQMNSLRAEDTAVYYCAREPRIGYYYDSSGYDSLDYRGQGTLVTVSS | 163 |
| anti-PSMA heavy-chain antibody (HCAb) clone ID 345436 (antibody, V domains shown, Heavy chain-only antibody (UniAb)) VH: QVQLVESGGGVVQPGRSLRLSCAASGFSFSRYGMHWVRQAPGKGLEGVAVIWYDGSNKYYADSVKGRFTISRDNSKNTLYLQMNSLRAEDTAVYYCAREPRIGYYYESSGYYSLDYRGQGTLVTVSS | 87 |
| anti-PSMA heavy-chain antibody (HCAb) clone ID 326084 (antibody, V domains shown, Heavy chain-only antibody (UniAb)) VH: QVQLVESGGGVVQPGRSLRLSCAASGFSFSSYGMHWVRQAPGKGLEGVAVIWYDGSNRYYADSVKGRFTISRDNSKNTLYLQMNSLRAEDTAVYYCAREPRIGYYYDSSGYYSLDYRGQGTLVTVSS | 125 |
| anti-PSMA heavy-chain antibody (HCAb) clone ID 325867 (antibody, V domains shown, Heavy chain-only antibody (UniAb)) VH: QVQLVESGGGVVQPGRSLRLSCAASGFSFRSYGMHWVRQAPGKGLEWVAVIWYDGSNKYYADSVKGRFTISRDYSKNTLYLQMNSLRAEDTAVYYCAREPRIGYYYESSGYDSLDYRGQGTLVTVSS | 210 |
| anti-PSMA heavy-chain antibody (HCAb) clone ID 345463 (antibody, V domains shown, Heavy chain-only antibody (UniAb)) VH: QVQLVESGGGVVQPGRSLRLSCAASGFIFRSYGMHWVRQAPGKGPEWVAVIWYDGSNKYYADSVKGRFTISRDNSKNTLYLQMNSLRAEDTAVYYCAREPRIGYYYESSGYYSLDYRGQGTLVTVSS | 68 |
| anti-PSMA heavy-chain antibody (HCAb) clone ID 345508 (antibody, V domains shown, Heavy chain-only antibody (UniAb)) VH: QVQLVESGGGVVQPGRSLRLSCAASGFSFSSYGMHWVRQAPGKGPEWVAVIWYDGSNRYYADSVKGRFTISRDNSKNTLYLQMNSLRAEDTAVYYCAREPRIGYYYESSGYYSLDYRGQGTLVTVSS | 55 |
| anti-PSMA heavy-chain antibody (HCAb) clone ID 345447 (antibody, V domains shown, Heavy chain-only antibody (UniAb)) VH: QVQLVESGGGVVQPGRSLRLSCAASGFSFSSYGMHWVRQAPGKGLEGVAVISYDGSNRYYADSVKGRFTISRDNSKNTLYLQMNSLRAEDTAVYYCAREPRIGYYYESSGYYSLDYRGQGTLVTVSS | 14 |
| anti-PSMA heavy-chain antibody (HCAb) clone ID 345443 (antibody, V domains shown, Heavy chain-only antibody (UniAb)) VH: QVQLVESGGGVVQPGRSLRLSCAASGFSFSSYGMHWVRQAPGKGLEGVAVIWYDGSNRYYADSVKGRFTISRDNSKNTLFLQMNSLRAEDTAVYYCAREPRIGYYYESSGYYSLDYRGQGTLVTVSS | 84 |
| anti-PSMA heavy-chain antibody (HCAb) clone ID 345485 (antibody, V domains shown, Heavy chain-only antibody (UniAb)) VH: QVQLVESGGGVVQPGRSLRLSCAASGFSFRSYGMHWVRQAPGKGLEWVAVIWYDGSNKYYADSVKGRFTISRDNSKNTMYLQMNSLRAEDTAVYYCAREPRIGYYYESSGYYSLDYRGQGTLVTVSS | 71 |
| anti-PSMA heavy-chain antibody (HCAb) clone ID 345461 (antibody, V domains shown, Heavy chain-only antibody (UniAb)) VH: QVQLVESGGGVVQPGRSLRLSCAASGFSFTSYGMHWVRQAPGKGLEGVAVIWYDGSNRYYADSVKGRFTISRDNSKNTLYLQMNSLRAEDTAVYYCAREPRIGYYYESSGYYSLDYRGQGTLVTVSS | 102 |
| anti-PSMA heavy-chain antibody (HCAb) clone ID 345421 (antibody, V domains shown, Heavy chain-only antibody (UniAb)) VH: QVQLVESVGGVVQPGRSLRLSCAASGFSFSSYGMHWVRQAPGKGLEGVAVIWYDGSNRYYADSVKGRFTISRDNSKNTLYLQMNSLRAEDTAVYYCAREPRIGYYYESSGYYSLDYRGQGTLVTVSS | 22 |
| anti-PSMA heavy-chain antibody (HCAb) clone ID 345493 (antibody, V domains shown, Heavy chain-only antibody (UniAb)) VH: QVQLVESGGGVVQPGRSLRLSCAASGFSFSRYGMHWVRQAPGKGLEWVAVIWYDGSNRYYADSVKGRFTISRDNSKNTLYLQMNSLRAEDTAVYYCAREPRIGYYYESSGYYSLDYRGQGTLVTVSS | 101 |
| anti-PSMA heavy-chain antibody (HCAb) clone ID 325742 (antibody, V domains shown, Heavy chain-only antibody (UniAb)) VH: QVQLVESGGGVVQPGRSLRLSCAASGFSFSSYGMHWVRQAPGKGLEWVAVIWYDGSNKYYADSVKGRFTISRDYSKNTLYLQMNSLRAEDTAVYYCAREPRIGYYYESSGYDSLDYRGQGTLVTVSS | 200 |
| anti-PSMA heavy-chain antibody (HCAb) clone ID 345482 (antibody, V domains shown, Heavy chain-only antibody (UniAb)) VH: QVQLVESGGGVVQPGRSLRLSCAASGFSFSSYGMHWVRQAPGKGLEGVAVIWYDGSNRYYADSVKGRFTISRDSSKNTLYLQMNSLRAEDTAVYYCAREPRIGYYYESSGYYSLDYRGQGTLVTVSS | 80 |
| anti-PSMA heavy-chain antibody (HCAb) clone ID 345509 (antibody, V domains shown, Heavy chain-only antibody (UniAb)) VH: QVQLVESGGGLVQPGGSLRLSCAASGFSFSSYGMHWVRQAPGKGLEGVAVIWYDGSNKYYADSVKGRFTISRDNSKNTMYLQMNSLRAEDTAVYYCAREPRIGYYYESSGYYSLDYRGQGTLVTVSS | 37 |
| anti-PSMA heavy-chain antibody (HCAb) clone ID 326087 (antibody, V domains shown, Heavy chain-only antibody (UniAb)) VH: QVQLVESGGGVVQPGRSLRLSCAASGFIFRSYGMHWVRQAPGKGPEWVAVIWYDGSNKYYADSVKGRFTISRDNSKNTLYLQMNSLRAEDTAVYYCAREPRIGYYYDSSGYDSLDYRGQGTLVTVSS | 129 |
| anti-PSMA heavy-chain antibody (HCAb) clone ID 345497 (antibody, V domains shown, Heavy chain-only antibody (UniAb)) VH: QVQLVESGGGVVQPGRSLRLSCAASGFSFSRYGMHWVRQAPGKGLEGVAVIWYDGSNRYYADSVKGRFTISRDNSKNTLYLQMNSLRAEDTAVYYCAREPRIGYYYESSGYYSLDYRGQGTLVTVSS | 112 |
| anti-PSMA heavy-chain antibody (HCAb) clone ID 326116 (antibody, V domains shown, Heavy chain-only antibody (UniAb)) VH: QVQLVESGGGVVQPGRSLRLSCAASGFSFSRYGMHWVRQAPGKGLEGVAVISYDGSNKYYADSVKGRFTISRDYSKNTLYLQMNSLRAEDTAVYYCAREPRIGYYYDSSGYDSLDYRGQGTLVTVSS | 38 |
| anti-PSMA heavy-chain antibody (HCAb) clone ID 326028 (antibody, V domains shown, Heavy chain-only antibody (UniAb)) VH: QVQLVESGGGVVQPGRSLRLSCAASGFSFRSYGMHWVRQAPGKGLEWVAVISYDGSNKYYADSVKGRFTISRDYSKNTLYLQMNSLRAEDTAVYYCAREPRIGYYYDSSGYDSLDYRGQGTLVTVSS | 117 |
| anti-PSMA heavy-chain antibody (HCAb) clone ID 326027 (antibody, V domains shown, Heavy chain-only antibody (UniAb)) VH: QVQLVESGGGVVQPGRSLRLSCAASGFSFRSYGMHWVRQAPGKGLEWVAVIWYDGSNKYYADSVKGRFTISRDNSKNTLYLQMNSLRAEDTAVYYCAREPRIGYYYDSSGYDSLDYRGQGTLVTVSS | 138 |
| anti-PSMA heavy-chain antibody (HCAb) clone ID 345444 (antibody, V domains shown, Heavy chain-only antibody (UniAb)) VH: QVQLVESGGGVVQPGRSLRLSCAASGFTFSSYGMHWVRQAPGKGLEGVAVIWYDGSNRYYADSVKGRFTISRDNSKNTLYLQMNSLRAEDTAVYYCAREPRIGYYYESSGYYSLDYRGQGTLVTVSS | 23 |
| anti-PSMA heavy-chain antibody (HCAb) clone ID 345438 (antibody, V domains shown, Heavy chain-only antibody (UniAb)) VH: QVQLVESGGGVVQPGRSLRLSCAASGFSFSSYGMHWVRQAPGKGPEWVAVIWYDGSNKYYADSVKGRFTISRDNSKNTLYLQMNSLRAEDTAVYYCAREPRIGYYYESSGYYSLDYRGQGTLVTVSS | 13 |
| anti-PSMA heavy-chain antibody (HCAb) clone ID 345505 (antibody, V domains shown, Heavy chain-only antibody (UniAb)) VH: QVQLVESGGGVVQPGRSLRLSCAASGFTFISYGMHWVRQAPGKGLEGVAVIWYDGSNRYYADSVKGRFTISRDNSKNTLYLQMNSLRAEDTAVYYCAREPRIGYYYESSGYYSLDYRGQGTLVTVSS | 59 |
| anti-PSMA heavy-chain antibody (HCAb) clone ID 345490 (antibody, V domains shown, Heavy chain-only antibody (UniAb)) VH: QVQLVESGGGLVKPGGSLRLSCAASGFSFSSYGMHWVRQAPGKGLEGVAVIWYDGSNRYYADSVKGRFTISRDNSKNTLYLQMNSLRAEDTAVYYCAREPRIGYYYESSGYYSLDYRGQGTLVTVSS | 80 |
| anti-PSMA heavy-chain antibody (HCAb) clone ID 326029 (antibody, V domains shown, Heavy chain-only antibody (UniAb)) VH: QVQLVESGGGVVQPGRSLRLSCAASGFSFSRYGMHWVRQAPGKGLEWVAVISYDGSNKYYADSVKGRFTISRDNSKNTLYLQMNSLRAEDTAVYYCAREPRVGYYYETSGYYSLDYRGQGTLVTVSS | 109 |
| anti-PSMA heavy-chain antibody (HCAb) clone ID 325920 (antibody, V domains shown, Heavy chain-only antibody (UniAb)) VH: QLQLQESGPGLVKPSETLSLTCTVSGGSISSSSYYWGWIRQPPGKGLEWIGSIDYSGYTYYNPSLQSRVTISVDTSKNQFSLKLSSVTAADTAVYNCARHKAATADFDYRGQGTLVTVSS | 282 |
| anti-PSMA heavy-chain antibody (HCAb) clone ID 346165 (antibody, V domains shown, Heavy chain-only antibody (UniAb)) VH: QLQLQESGPGLVKPSETLSLTCTVSGGSISSSSYYWGWIRQPPGKGLEWIGSVDYSGYTYYNPSLQSRVTISVDTSKNQFSLKLSSVTAADTAVYNCARHKAATADFDYRGQGTLVTVSS | 243 |
| anti-PSMA heavy-chain antibody (HCAb) clone ID 346181 (antibody, V domains shown, Heavy chain-only antibody (UniAb)) VH: QLQLQESGPGLVKPSETLSLTCTVSGGSISSSNYFWGWIRQSPGKGLEWIGSIDYSGYTYYNPSLKSRVTISVDTSKNQFSLKLSSVTAADTAVYNCARHKAATADFDYRGQGTLVTVSS | 264 |
| anti-PSMA heavy-chain antibody (HCAb) clone ID 326109 (antibody, V domains shown, Heavy chain-only antibody (UniAb)) VH: QLQLQESGPGLVKPSETLSLTCTVSGGSISSNSYYWGWIRQSPGKGLEWLGSIYDSGSTHYNPSLKSRVIISGDTSKNQFSLKLSSVTAADTAVYYCARHKAATADFDYRGQGTLVTVSS | 25 |

Reference: patent US20230203161A1 (TENEOBIO, published 2023)
